B1: Serine/arginine-rich splicing factor 2 (Homo sapiens), Q01130 (parent)
chain: MSYGRPPPDVEGMTSLKVDNLTYRTSPDTLRRVFEKYGRVGDVYIPRDRYTKESRGFAFVRFHDKRDAEDAMDAMDGAVLDGRELRVQMARYGRPPDSHHSRRGPPPRRYGGGGYGRRSRSPRRRRRSRSRSRSRSRSRSRSRYSRSKSRSRTRSRSRSTSKSRSARRSKSKSSSVSRSRSRSRSRSRSRSPPPVSKRESKSRSRSKSPPKSPEEEGAVSS

Variants of: B1
Conditions: with kat5_human KAT5, Q92993
kat5_human KAT5, Q92993, sequence (Q92993 whole entry, looked up): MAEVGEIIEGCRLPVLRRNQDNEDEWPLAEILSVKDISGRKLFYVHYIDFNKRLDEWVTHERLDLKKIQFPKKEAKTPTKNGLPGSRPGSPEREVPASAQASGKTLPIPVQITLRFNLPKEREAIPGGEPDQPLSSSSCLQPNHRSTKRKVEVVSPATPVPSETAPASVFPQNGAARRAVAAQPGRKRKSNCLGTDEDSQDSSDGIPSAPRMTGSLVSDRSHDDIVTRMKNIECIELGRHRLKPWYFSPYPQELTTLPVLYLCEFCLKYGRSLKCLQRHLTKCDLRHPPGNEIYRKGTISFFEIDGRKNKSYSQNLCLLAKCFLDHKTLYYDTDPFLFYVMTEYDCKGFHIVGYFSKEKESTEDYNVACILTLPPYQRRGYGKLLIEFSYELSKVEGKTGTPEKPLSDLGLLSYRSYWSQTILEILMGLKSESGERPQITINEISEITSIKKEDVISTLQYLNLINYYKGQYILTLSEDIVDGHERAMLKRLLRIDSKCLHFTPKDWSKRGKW

| Variant | effect of a mutation on the interaction |
| --- | --- |
| MSYGRPPPDVEGMTSLKVDNLTYRTSPDTLRRVFEKYGRVGDVYIPRDRYTRESRGFAFVRFHDKRDAEDAMDAMDGAVLDGRELRVQMARYGRPPDSHHSRRGPPPRRYGGGGYGRRSRSPRRRRRSRSRSRSRSRSRSRSRYSRSKSRSRTRSRSRSTSKSRSARRSKSKSSSVSRSRSRSRSRSRSRSPPPVSKRESKSRSRSKSPPKSPEEEGAVSS [K52R] | disrupting interaction |

— IntAct's records for PubMed 21157427
